Assay results from the nanobody polyreactivity screen of Harvey et al. (2022).

Experiment: yeast display, Sf9 membrane polyspecificity reagent, FACS + sequencing; frameworks hold sequencing errors
Summary of the method: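 A nanobody's polyreactivity label depends on the gate it was sorted from. Yeast display cells were stained with 10% biotinylated, detergent-solubilized Sf9 membrane reagent for 1 hour at 4 °C, enriched on streptavidin microbeads and sorted by FACS. The low and high (top ~1%) gates were set on anti-HA fluorescence for expression and streptavidin fluorescence for reagent binding.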

Sequence | polyreactivity (PSR sort gate)
QVQLVESGGGLVQAGGSLRLSCAASGRIFYNYGLGWYRQAPGKERELVARITTGGRTNYADSVKGRFTMSRDNAKNTVYLQMNSLKPEDTAVYYCNADGYHSRWYYYNYDYWGQGTQVTVSS | low polyreactivity
QVQLVESGGGLVQAGGSLRLSCAASGRIFYNYSMGWYRQAPGKEREVVAAISGSGGSTYYADSVKGRFTISRDNAKNTVYLQMNSLKPEDTAVYYGSTSGGQYYSRNFEYWGQGTQVTVSS | low polyreactivity
QVQLVESGGGLVQAGGSLRLSCAASGRIFYNYVMGWYRQAPGKERELVAAISDSGGSTYYADSVKGRFTISRDNAKNTVYLQMNSLKPEDTAVYYCNKVRPRKFWDYYYWGQGTQVTVSS | high polyreactivity
QVQLVESGGGLVQAGGSLRLSCAASGRIFYPNAMGWYRQAPGKERELVAAISSGGRTNYADSVKGRFTISRDNAKNTVYLQMNSLKPEDNAVYYCAARDRSQYTSTYAFGGGYWGHGTQVTVSS | low polyreactivity
QVQLVESGGGLVQAGGSLRLSCAASGRIFYPNGMGWYRQAPGKERELVAAITGSGGSTYYADSVKGRFTISRDNAKNTVYLQMNSLIPEDTAVYYCAATWRYYLYPLGPHEFDYWGQGTQVTVSS | low polyreactivity
QVQLVESGGGLVQAGGSLRLSCAASGRIFYPYAMGGYRQAAGKEREFVAAISSGVSTNYADSVTGRFTISRDNATTTVYLQMNSLKPEDTAVYYCARSYFRYASSYYQAVSHGYSGQGTQVTVSS | high polyreactivity
QVQLVESGGGLVQAGGSLRLSCAASGRIFYPYAMGWYRQAPGKERELVAAISGSGARTYYADSVKGRFTISRDNAKHTVYLQMNSLKPEDTAVYYCARYQSNSDDYWGQGTQVTVSS | high polyreactivity
QVQLVESGGGLVQAGGSLRLSCAASGRIFYPYAMGWYRQAPGKERELVAAITSDGGSTYYADSVKGRFTISRDNAKNTVYLQMNSLKPEDTAVYYCAAYEAYKANVGGGYYYWGQGTQVTVSS | low polyreactivity
QVQLVESGGGLVQAGGSLRLSCAASGRIFYPYAMGWYRQAPGKESEFVAAIRWSSGSTYYADSVKGRFTISRDNAKNTVYLQMNSLKPEDTAVYYCAAEGYDSYSYDYWGQGTQVTVSS | high polyreactivity
QVQLVESGGGLVQAGGSLRLSCAASGRIFYPYAMGWYRQAPGQERELVAVINGSGGSTYYADSVKGRFTISRDNAKNTVYLQMNSLKPEDTAVYYCAAVGAYSRNEYDYWGQGTQVTVSS | high polyreactivity
QVQLVESGGGLVQAGGSLRLSCAASGRIFYPYVMGWYRQAPGKERELVAAITGGGSTYYADSVKGRFTISRDNAKNTVYLQMNSLKPEDTAVYYCAKRSYGDRDERYDSWGQGTQVTVSS | low polyreactivity
QVQLVESGGGLVQAGGSLRLSCAASGRIFYQNVMGWYRQAPGKERELVAAITTSGGRTYYADSVKGRFTISRDNAKNTVYLQMNSLKPEDTAVYYCAAKASNRGYYYWGQGTQVTVSS | high polyreactivity
QVQLVESGGGLVQAGGSLRLSCAASGRIFYQYAMGWYRQAPGKERELVAAIRYRDDGTYYADSVKGRFTISRDNAKNTVYLQMNSLKPEDTAVYYCAAKQWGRYGFWGQGTQVTVSS | high polyreactivity
QVQLVESGGGLVQAGGSLRLSCAASGRIFYRNAMGWYRQAPGKERELVAAIRGGDNTYYADSVKGRFTISRDNAKNTVYLQMNSLKPEDTAVYYCAARSYRLDSYYWGQGTQVTVSS | high polyreactivity
QVQLVESGGGLVQAGGSLRLSCAASGRIFYRNAMGWYRQAPGKERELVAAISRRGGSTSYADSVKGRFTISRDNANNTVYLQMNSLKPEDTAVYYCAASRFRTGQEDDYWGQGTQVTVSS | high polyreactivity
QVQLVESGGGLVQAGGSLRLSCAASGRIFYRYAMGGYRQAPGKERELVASITTSGDSTYYADSVKGRFTISRDNAKNTVYLQMNSLKPEDTGVYYCAASSYRGRRYDYWGQGTQVTVSS | high polyreactivity

Sequence | polyreactivity (PSR sort gate)
QVQLVESGGGLVQAGGSLRLSCAASGRIFYRYAMGWYRPAPGKERELVATITGRGGSTYYADSVKGRFTISRDNAKNTVYLQMNSLKPEDTAVYYCATTRSVSYPYDGSYYWGQGTQVTVSS | high polyreactivity
QVQLVESGGGLVQAGGSLRLSCAASGRIFYRYAMGWYRQAPGKEREFVAAISGTGGSTYYADSVKGRFTISRDNAKNTVYLQMNSLKPEDTAVDYCAASVVSRPTYYAYYYWGQGTQVTVSS | high polyreactivity
QVQLVESGGGLVQAGGSLRLSCAASGRIFYRYAMGWYRQAPGKERELVAAINDGGSTYYADSVKGRFTISRDNAKNTVYLQMNSLKAEDTAVYYCNVVNEHQSDFVVPFDYNHWGQGTQVTVSS | low polyreactivity
QVQLVESGGGLVQAGGSLRLSCAASGRIFYRYAMGWYRQAPGKERELVAAIRYSGGRTYYADSVKGRFTISRDNAKNTVYLQMNSLKPEDTAVYYCAADGQWYYAPFRGGDYENDYWGQGTQVTVSS | low polyreactivity
QVQLVESGGGLVQAGGSLRLSCAASGRIFYRYAMGWYRQAPGKERELVAAITGSVGSTYYADSVKGRFTISRDNAKNTVYLQMNSLKPEDTAVYYCAREYHGDSRRYDYWGQGTQVTVSS | high polyreactivity
QVQLVESGGGLVQAGGSLRLSCAASGRIFYRYAMGWYRQAPGKERELVAAITYSGSSTYYADSVKGRFTISRDNAKNTVYLQMNSLKPEDTAVYYCAARFQSTNGHKYYYWGQGTQVTVSS | high polyreactivity
QVQLVESGGGLVQAGGSLRLSCAASGRIFYRYVMGWYREAPGKERELVAAIRNSGGSTYYADSVKGRFTISRDNAKNTVYLQMNSLKPEDTAVYYCAKRYGTSFYVGSAKIGYDYWGQGTQVTVSS | high polyreactivity
QVQLVESGGGLVQAGGSLRLSCAASGRIFYSNTMGWYRQAPGKERELVAAISRSGGRTYYADSVKGRFTISRDNAKHTVYLQMNSLKPEDTAVYYCNTAYYRNPYYKGYYWGQGTQVTVSS | high polyreactivity
QVQLVESGGGLVQAGGSLRLSCAASGRIFYSYAMGGYRQAPGQERELVAAIDESDGSTYYADSVKGRFTISRDNATNTVYLQLNSLKPDDTAVYYSAADSLLVLFDYWGQGTQVTVSS | low polyreactivity
QVQLVESGGGLVQAGGSLRLSCAASGRIFYSYAMGWSRQAPGKERELVAAISFSVGSTYYADSVKGRFTISRDNAKNSVYLQMNSLKPEDTAVYYCAASLGFPGYEYWGQGTQVTVSS | low polyreactivity
QVQLVESGGGLVQAGGSLRLSCAASGRIFYSYAMGWYRQAPGKERELVAAITRGGSTSYADSVKGRFTISRDNAKNTVYLQMNSLKPEDTAVYYCATRQFYSYWKYYYWGQGTQVTVSS | high polyreactivity
QVQLVESGGGLVQAGGSLRLSCAASGRIFYSYAMGWYRQAPGKERELVATISRRGGSTYYADSVKGRFTISRDNAKITVYLQMNSLKPEDTAVYYCNKGIPTRSVRSYDYWGQGTQVTVSS | high polyreactivity
QVQLVESGGGLVQAGGSLRLSCAASGRIFYSYAMGWYRQAPGKESELVAAIRSTGSTNYADSVKGRFTISRDNAKNTVYLQMNSLKPEDTAVYYCAARTSYRSSLFGYWGQGTQVTVSS | high polyreactivity
QVQLVESGGGLVQAGGSLRLSCAASGRIFYSYTMGWYRQAPGKERELVAGINRSVGSTYYADSVKGRFTISRDNAKNTVYLQMNSLKPEDTAVYYCAAGSRRRSYYTFSSVHGHYYWGQGTQVTVSS | high polyreactivity
QVQLVESGGGLVQAGGSLRLSCAASGRIFYSYVMGWYRQAPGKDRELVGAITRSGGTTYYADSVMGRFTISRDNANNPVYLQMNSLKPEDTAVYYCATRSIFNGYGYYHPYNFWGQGTQVTVSS | high polyreactivity
